Experimental data as given in patent US6475718.

Biological target: orphan seven transmembrane domain receptor APJ (human) (UniProt P35414)
Assay: cell-based or functional assay

UniProt P35414, sequence (P35414 whole entry I109M/F110L, the tested form may be a part): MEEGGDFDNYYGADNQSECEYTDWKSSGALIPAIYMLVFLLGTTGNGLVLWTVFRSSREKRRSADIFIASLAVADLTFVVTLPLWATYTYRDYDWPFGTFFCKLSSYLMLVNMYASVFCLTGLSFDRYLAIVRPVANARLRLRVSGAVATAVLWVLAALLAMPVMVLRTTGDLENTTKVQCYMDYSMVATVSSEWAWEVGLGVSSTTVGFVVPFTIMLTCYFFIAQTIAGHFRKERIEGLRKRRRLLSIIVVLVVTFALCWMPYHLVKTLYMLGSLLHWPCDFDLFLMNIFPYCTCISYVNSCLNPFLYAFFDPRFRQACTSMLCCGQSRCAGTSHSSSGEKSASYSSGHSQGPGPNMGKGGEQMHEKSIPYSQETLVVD

HIV-1 89.6 env protein (from UniProt Q73372 32-853)
cell-cell fusion (luciferase activity), QT6 target cells with CD4 and APJ (% of that observed with CXCR4): > 70
